Assay results published in US12129222B2, “Production of bitter principle derivatives” (Julius-Maximilians-Universitaet Wuerzburg, priority 2016, dated 2024).
Non-standard residues stand in square brackets, D forms with d.

Biological target: MMP-8 (Homo sapiens, UniProt P22894)
Assay: Enzymatic peptide cleavage by matrix metalloproteinases
Assay type: biochemical
Settings: after cleavage from the resin; activated MMP, 1 h at 37° C., pH 7.0; LC-MS
Experimental: (§1) For that, a 2-3 hour activation of the pre-MMP by p-aminophenyl mercury acetate (APMA 10 mM in 0.1 M NaOH) in a ratio of 10:1 (MMP:APMA v/v) takes place at 37° C. Subsequently, the activated MMP is added to the peptides dissolved in buffer (200 mM NaCl, 50 mM Tris-HCl, 5 mM CaCl2, 1 μM ZnCl2, 0.05% BRIJ® 35, 0.05% NaN3, pH 7.0) in defined concentrations (9 ng/ml, 45 ng/ml, 90 ng/ml, 225 ng/ml, 450 ng/ml, and 900 ng/ml) and incubated for 1 h at 37° C. The reaction is stopped by separation/filtration of the MMP by centrifugation or addition of 10 equivalents of EDTA (250 mM). The cleavage products are analyzed by liquid chromatography with masse spectrometry coupling (LC-MS).
as §1, with “concentrations” for “concentrations (9 ng/ml, 45 ng/ml, 90 ng/ml, 225 ng/ml, 450 ng/ml, and 900 ng/ml)”, “mass” for “masse”

Chain of MMP-8 (P22894 101-467, species assumed): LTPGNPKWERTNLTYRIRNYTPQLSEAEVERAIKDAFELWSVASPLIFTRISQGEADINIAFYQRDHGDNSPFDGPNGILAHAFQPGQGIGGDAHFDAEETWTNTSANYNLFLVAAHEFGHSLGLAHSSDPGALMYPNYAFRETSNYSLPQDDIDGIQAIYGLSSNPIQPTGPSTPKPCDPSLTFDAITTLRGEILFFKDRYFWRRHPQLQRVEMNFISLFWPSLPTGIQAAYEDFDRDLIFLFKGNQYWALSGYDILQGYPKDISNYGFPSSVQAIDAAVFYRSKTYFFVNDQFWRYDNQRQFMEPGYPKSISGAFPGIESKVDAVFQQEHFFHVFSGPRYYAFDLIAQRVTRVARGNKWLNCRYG

## NH2-G-p-q-G-I-A-G-q-Q—COOH: peptide modified by replacing L by D amino acids (small letters mean D-amino acids) (H-G[dP][dQ]GIAG[dQ]Q-OH; SMILES CC[C@H](C)[C@H](NC(=O)CNC(=O)[C@@H](CCC(N)=O)NC(=O)[C@H]1CCCN1C(=O)CN)C(=O)N[C@@H](C)C(=O)NCC(=O)N[C@H](CCC(N)=O)C(=O)N[C@@H](CCC(N)=O)C(=O)O)
  cleavage by matrix metalloproteinases (MMP) such as MMP-8: specifically cleaved
